# Data taken from IntAct's records for PubMed 17964261.
# B1: Proline-serine-threonine phosphatase-interacting protein 1 (Homo sapiens), O43586 (parent)
# chain: MMPQLQFKDAFWCRDFTAHTGYEVLLQRLLDGRKMCKDMEELLRQRAQAEERYGKELVQIARKAGGQTEINSLRASFDSLKQQMENVGSSHIQLALTLREELRSLEEFRERQKEQRKKYEAVMDRVQKSKLSLYKKAMESKKTYEQKCRDADDAEQAFERISANGHQKQVEKSQNKARQCKDSATEAERVYRQSIAQLEKVRAEWEQEHRTTCEAFQLQEFDRLTILRNALWVHSNQLSMQCVKDDELYEEVRLTLEGCSIDADIDSFIQAKSTGTEPPAPVPYQNYYDREVTPLTSSPGIQPSCGMIKRFSGLLHGSPKTTSLAASAASTETLTPTPERNEGVYTAIAVQEIQGNPASPAQEYRALYDYTAQNPDELDLSAGDILEVILEGEDGWWTVERNGQRGFVPGSYLEKL
# partner: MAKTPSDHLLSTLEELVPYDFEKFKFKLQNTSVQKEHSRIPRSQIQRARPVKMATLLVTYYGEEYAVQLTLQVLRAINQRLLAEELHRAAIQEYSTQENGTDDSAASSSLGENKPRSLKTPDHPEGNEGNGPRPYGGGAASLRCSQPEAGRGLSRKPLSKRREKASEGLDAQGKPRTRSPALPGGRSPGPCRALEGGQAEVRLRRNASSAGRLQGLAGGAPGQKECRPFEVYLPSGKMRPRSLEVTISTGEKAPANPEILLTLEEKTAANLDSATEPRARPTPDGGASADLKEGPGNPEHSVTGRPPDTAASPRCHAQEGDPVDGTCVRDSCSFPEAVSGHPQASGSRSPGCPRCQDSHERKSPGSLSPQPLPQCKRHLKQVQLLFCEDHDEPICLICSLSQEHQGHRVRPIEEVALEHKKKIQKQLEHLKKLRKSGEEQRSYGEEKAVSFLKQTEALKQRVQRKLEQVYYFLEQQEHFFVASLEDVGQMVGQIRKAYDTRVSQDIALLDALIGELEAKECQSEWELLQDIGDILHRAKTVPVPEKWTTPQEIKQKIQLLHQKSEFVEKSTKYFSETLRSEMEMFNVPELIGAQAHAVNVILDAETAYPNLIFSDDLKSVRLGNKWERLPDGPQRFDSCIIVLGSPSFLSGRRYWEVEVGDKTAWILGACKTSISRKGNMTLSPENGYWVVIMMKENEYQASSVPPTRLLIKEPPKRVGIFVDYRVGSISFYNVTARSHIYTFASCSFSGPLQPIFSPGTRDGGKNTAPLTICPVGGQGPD
# Variants of: B1
# Conditions: with mefv_human MEFV
row,Variant,effect of a mutation on the interaction
1,A230T,increasing interaction strength
2,E250Q,increasing interaction strength
